{"source": "patent US12559559B2", "about": "“Targeting Galectin-9 as a therapeutic strategy for T-cell exhaustion in T-cell acute lymphoblastic leukemia” (DANA-FARBER CANCER INSTITUTE, INC., priority 2019, dated 2026)", "molecular_target": "T1, Galectin-9 (LGALS9) (Homo sapiens, UniProt O00182)", "T1 construct": "cultured from normal donors with and without T-ALL supernatant (containing LGALS9) for three days; endogenous in cells; host or cells: DND-41 T-ALL cell line (culture supernatant)", "T1 sequence (O00182 whole entry)": "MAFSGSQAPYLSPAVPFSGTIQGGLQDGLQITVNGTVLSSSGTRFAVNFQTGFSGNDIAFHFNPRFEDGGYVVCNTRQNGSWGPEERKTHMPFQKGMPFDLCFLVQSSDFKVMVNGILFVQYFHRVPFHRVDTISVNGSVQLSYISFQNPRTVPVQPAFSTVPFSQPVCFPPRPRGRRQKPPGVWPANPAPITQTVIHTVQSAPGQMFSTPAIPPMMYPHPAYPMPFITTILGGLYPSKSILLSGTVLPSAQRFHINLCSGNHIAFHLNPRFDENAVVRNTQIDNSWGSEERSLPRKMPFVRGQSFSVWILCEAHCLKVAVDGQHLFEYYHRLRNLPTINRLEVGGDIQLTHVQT", "experiment": "T-cell exhaustion functional assay / HAVCR2-LGALS9 pathway blocking in activated CD8+ T-cells (qRT-PCR)", "type": "cell-based", "conditions": "recombinant Galectin-9 2.5 μg/mL added to the culture, 72 hours", "method": "HAVCR2 mRNA expression in activated CD8+ T-cells cultured with T-ALL supernatant (from DND-41 cells; orange) or control media (blue), in the presence/absence of anti-human Galectin-9 (10 μg/mL) or recombinant Galectin-9 (2.5 μg/mL). n.s. P>0.05, **P≤0.01 and ***P≤0.001, based on 3 technical replicates, using two-sided t-test.\nT-cells were isolated using Easy Sep Human T-cell Enrichment kit (StemCell Technologies), activated and expanded with Dynabeads Human T-activator CD3/CD28 (ThermoFisher Scientific) in X-VIVO 15 (Lonza) with 5% of human AB serum, and 50 U/mL IL-2 (Miltenyi Biotech). For T-cell exhaustion functional assays, activated CD8′ T-cells were cultured in X-VIVO 15 media or in supernatant media of DND-41 cell line, with 50 U/mL IL-2. For HAVCR2-LSGAL9 pathway blocking experiments, activated CD8^+ T-cells were cultured in X-VIVO 15 media or in supernatant media of DND-41 T-ALL supplemented with anti-human Galectin-9 10 μg/mL (Thermo Fisher Scientific) or recombinant Galectin-9 2.5 μg/mL (R&D systems) for 72 hours.\nRNA was isolated using RNeasy Mini Kit (Qiagen), followed by reverse transcription with SuperScript III Reverse Transcriptase (ThermoFisher Scientific). Gene expression was quantified by quantitative real-time PCR using Power SYBR Green PCR Master Mix (Applied Biosystems, Vial instrument). […]"}
{"molecule": "recombinant soluble LGALS9: recombinant Galectin-9 (R&D systems), used at 2.5 μg/mL (protein) MAFSGSQAPYLSPAVPFSGTIQGGLQDGLQITVNGTVLSSSGTRFAVNFQTGFSGNDIAFHFNPRFEDGGYVVCNTRQNGSWGPEERKTHMPFQKGMPFDLCFLVQSSDFKVMVNGILFVQYFHRVPFHRVDTISVNGSVQLSYISFQNPRTVPVQPAFSTVPFSQPVCFPPRPRGRRQKTQTVIHTVQSAPGQMFSTPAIPPMMYPHPAYPMPFITTILGGLYPSKSILLSGTVLPSAQRFHINLCSGNHIAFHLNPRFDENAVVRNTQIDNSWGSEERSLPRKMPFVRGQSFSVWILCEAHCLKVAVDGQHLFEYYHRLRNLPTINRLEVGGDIQLTHVQT", "values": [{"measurement": "Exhaustion marker expression in activated CD8+ T-cells", "result": "upregulation of exhaustion markers"}]}
